Source: patent publication US20250325640A1

Target: CD20 on Daudi cells (UniProt P11836)
Assay: cell-based or functional assay

“Rituximab (anti-CD20 IgG, Mabthera) (antibody)” showed a complement-dependent cytotoxicity (CCK8 cell survival, baby rabbit serum) (% of cells dead) of 70.
